{"source": "patent US20200069736A1", "about": "(WHITEHEAD INSTITUTE FOR BIOMEDICAL RESEARCH, published 2020)", "binders": {"B1": {"name": "3G-myc-hGPA on the surface of mouse red blood cells, not labeled with VHH7 (other, human, not shown: small tags and cut ends)", "chain (part 1 of 2)": "GGG", "chain (part 2 of 2)": "LSTTEVAMHTSTSSSVTKSYISSQTNDTHKRDTYAATPRAHEVSEISVRTVYPPEEETGERVQLAHHFSEPEITLIIFGVMAGVIGTILLISYGIRRLIKKSPSDVKPLPSPDTDVPLSSVEIENPETSDQ", "notes": "mature; also called 3G-myc-GPA red blood cells; unmodified red cells"}}, "target": "T1, murine Class II MHC molecules on wild-type C57BL/6 mouse B cells (mouse, UniProt P14434 24-256; P14483 28-265)", "T1 construct": "whole, on cells; Endogenous MHC class II on B cells immobilised on streptavidin beads through biotinylated anti-CD19; also called mouse MHC class II", "T1 sequence (MHC II alpha, looked up)": "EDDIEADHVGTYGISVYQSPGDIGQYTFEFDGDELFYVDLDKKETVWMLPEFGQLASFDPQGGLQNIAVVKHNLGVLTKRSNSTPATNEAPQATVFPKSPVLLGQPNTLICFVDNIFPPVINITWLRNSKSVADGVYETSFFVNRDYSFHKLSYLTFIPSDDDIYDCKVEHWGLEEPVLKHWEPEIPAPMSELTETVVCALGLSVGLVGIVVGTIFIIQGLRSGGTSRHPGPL", "T1 sequence (MHC II beta, looked up)": "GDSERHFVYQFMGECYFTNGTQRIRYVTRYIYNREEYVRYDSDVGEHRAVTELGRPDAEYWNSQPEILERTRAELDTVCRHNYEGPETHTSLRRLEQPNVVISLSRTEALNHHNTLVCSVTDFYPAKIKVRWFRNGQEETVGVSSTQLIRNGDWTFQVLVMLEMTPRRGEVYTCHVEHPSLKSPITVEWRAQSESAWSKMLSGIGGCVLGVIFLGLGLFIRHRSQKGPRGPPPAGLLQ", "assay": "B cell-red blood cell binding assay: B cells on magnetic beads, bound red cells detected by anti-hemoglobin immunoblot", "procedure": "FIG. 25 is a diagram showing conjugation of single domain antibody to engineered red blood cells and cell type-specific targeting. (A) Mouse mature red blood engineered to contain 3G-myc-GPA on the cell surface were incubated with. Sortase with or without VHH7-LPETG (SEQ ID NO: 44): a single domain antibody with binding specificity for mouse MHC class II molecules and sortase motif complementary to 3G. […] (B) Either wild type mouse B cells (expressing MHC class II) or B cells derived from MHC class II knock-out mice were immobilized on magnetic streptavidin beads via biotinylated α-CD19 antibody, incubated with 3G-myc-GPA red blood cells or red cells that contained sortase-labeled VHH7-LPETG (SEQ ID NO: 44)-myc GPA on their surface, and washed. Immobilization of B cells in all experimental set-ups was tested by presence of CD19 in α-CD19 immunoblot and binding between B cells and red blood cells was evaluated by the presence of hemoglobin in the α-hemoglobin immunoblot. (C) Schematic for experiment shown in (B); LPETG: (SEQ ID NO: 44).\nA B cell—red blood cell binding assay was performed as follows. B cells were isolated from either wild-type C57BL/6 mice or mice knock-out for MI-IC class II using Dynabeads Mouse CD43 (Untouched B cells) (Life Technologies) according to manufacturer's recommendations. […]", "data": [{"binder": "B1", "values": [{"measurement": "binding result", "value": "no binding"}]}]}
